# Results from patent US20110268668A1, “PROCESS FOR NEBULIZING AQUEOUS COMPOSITIONS CONTAINING HIGHLY CONCENTRATED INSULIN” (priority 1997, published 2011).
# “And” between values parts separate entries of the source, which are not always exact repeats. Equal values may be shown once.
# B1: manganese superoxide dismutase (protein, UniProt P04179 25-222, looked up)
# Superoxide dismutase [Mn], …: KHSLPDLPYDYGALEPHINAQIMQLHHSKHHAAYVNNLNVTEEKYQEALAKGDVTAQIALQPALKFNGGGHINHSIFWTNLSPNGGGEPKGELLEAIKRDFGSFDKFKEKLTAASVGVQGSGWGWLGFNKERGHLQIAACPNQDPLQGTTGLIPLLGIDVWEHAYYLQYKNVRPDYLKAIWNVINWENVTERYMACKK
# notes: 3.3 mg/mL of manganese superoxide dismutase (MnSOD) in phosphate-buffered saline
# Tests used:
# [1] = In vitro RESPIMAT nebulization, trap recovery of interferon omega by ELISA
# Excerpt: (§1) The effectiveness of a nebulizer can be tested using an in vitro system in which a protein solution is nebulized and the spray mist is caught in a so-called “trap” (see FIG. 1). The activity of the protein in the aerosol reservoir (a) is compared with its activity in the trapped liquid (b), e.g., by means of an immunoassay or using an assay for the biological effectiveness of the protein. This experiment makes it possible to evaluate the degree of destruction of the protein by the nebulizing process. A second parameter of the aerosol quality is the so-called inhalable proportion, which is defined here as the proportion of the mist droplets with a […] median aerodynamic diameter (MMAD) of less than 5.8 μm. The inhalable proportion can be measured using an “Andersen Impactor”. For good protein absorption it is important not only to achieve nebulization without any substantial loss of activity but also to generate an aerosol with a good inhalable proportion (about 60%). […] The effectiveness of a nebulization device can also be tested in an in vivo system; in this case factors such as susceptibility to lung proteases come into play. […] Blood samples arc taken at suitable time intervals and the protein level in the plasma is then measured by immunological or biological methods.
# (§2) The device was activated and a volume of about 12.9 μL, (one puff) was nebulized in an air current of 28 l/min. […] Interferon omega was measured in the reservoir solution and in the solution caught in the trap by immunological methods, using an ELISA, and biologically, by inhibiting the destruction of encephalo-myocarditis virus infected A549 cells. […] However, additional biological measurements are very important as they are a particularly sensitive and therapeutically relevant method of quantifying protein destruction.
# (§3) In three experiments, 84%, 77%, and 98%, of the immunologically identifiable interferon, based on the starting solution, were found in the trap solution (b). […] The proportion of particles less than 5.8 μm in size (“inhalable proportion”) was measured. […]
# [2] = tested on: encephalo-myocarditis virus infected A549 cells; test: In vitro RESPIMAT nebulization, trap recovery of interferon omega by biological assay (inhibiting destruction of virus-infected cells); assay type: cell-based; settings: same solutions
# Excerpt: as §1, §2, §3
# [3] = Inhalable proportion of RESPIMAT spray mist in Andersen impactor; assay type: physicochemical; settings: immunological measurements
# Excerpt: as §1, §3
# In this experiment, the reservoir (a) of the RESPIMAT® device was filled with 3.3 mg/mL of manganese superoxide dismutase (MnSOD) in phosphate-buffered saline (PBS). […] The precise amount nebulized was determined gravimetrically (measurements in three succeeding tests: 12.8, 13.7, and 14.3 mg). […] MnSOD was determined in the reservoir solution and in the solution caught in the trap, immunologically using an ELISA and enzymatically by the reduction in the quantity of superoxide after a xanthine/xanthine oxidase reaction. […]
# neopterin = test: In vivo test in dog: serum neopterin after interferon omega by RESPIMAT inhalation vs intravenous
# Method: Interferon omega was administered by inhalation and intravenous route in separate experiments on the same dog. The blood levels of interferon were measured immunologically and biologically at different times. In addition, the neopterin level in the blood was measured. Neopterin is a marker for immune activation; it is released by macrophages after interferon stimulation [see Fuchs et al., “Neopterin, Biochemistry and Clinical Use as a Marker For Cellular Immune Reactions”, Int. Arch. Allergy Appl. Immunol. 101: 1-6 (1993)]. Measurement of the neopterin level serves to quantify interferon activity.
# The administration of interferon to the dog was carried out under pentobarbital anesthetic after previous basic sedation. The animal was intubated and subjected to artificial ventilation (volume-controlled respiration: volume per minute 4 L/min, rate 10 breaths/min). A total of 20 puffs were delivered by the RESPIMAT® device. Each puff was given at the start of an inward breath. After the breathing in phase there were five seconds gap before breathing out. […] Interferon omega was measured in heparin plasma by immunological methods using an ELISA and by biological methods by the inhibition of the destruction of encephalo-myocarditis virus infected A549 cells. Serum neopterin was determined by immunology. […]
# [4] = Viscosity of aerosol preparation (Ostwald viscosimeter); assay type: physicochemical; settings: aerosol preparation with about 35 mg/mL of insulin, pH 7.4
# Method: Higher viscosity solutions of macromolecules with a viscosity of up to 1100×10^−6 Pa·s are preferred. With such solutions, an inhalable proportion of droplets containing an active substance of about 60% is obtained. The limiting viscosity numbers given were detected using an Ostwald viscosimeter using the method known from the literature. For comparison, the viscosity of water is 894×10^−6 Pa·s (measured at 25° C.).
# The aerosol preparation thus produced has a concentration of about 35 mg/mL of insulin, the viscosity of the solution being about 1020×10^−6 Pa·s.
# blood glucose level = test: In vivo test in dog: blood glucose after inhaled highly concentrated insulin solution from RESPIMAT; settings: anesthetized dog; six puffs of highly concentrated insulin solution from RESPIMAT; FIG. 5
# Method: The insulin was administered to the dog anesthetized with pentobarbital after previously receiving basic sedation. The animal was intubated and ventilated as before. A total of six puffs of insulin solution were delivered from the RESPIMAT® device. Each puff was administered at the start of an inward breath. Between the breathing in phase and the breathing out phase there was a gap of 5 seconds. Before the next administration of insulin, two breath cycles were left with no intervention. Blood was taken one hour before administration, at the same time as administration and at various times thereafter over […]. The blood glucose level was measured in the fresh blood using the method of Trasch, Koller, and Tritscher (Klein. Chem. 30; 969 [1984]) using a REFLETRON® device made by Boehringer Mannheim.
# [5] = In vitro RESPIMAT nebulization, trap recovery of MnSOD by ELISA; settings: 3.3 mg/mL MnSOD in PBS, one puff, 28 L/min, three tests
# Excerpt: The effectiveness of a nebulizer can be tested using an in vitro system in which a protein solution is nebulized and the spray mist is caught in a so-called “trap” (see FIG. 1). The activity of the protein in the aerosol reservoir (a) is compared with its activity in the trapped liquid (b), e.g., by means of an immunoassay or using an assay for the biological effectiveness of the protein. This experiment makes it possible to evaluate the degree of destruction of the protein by the nebulizing process. A second parameter of the aerosol quality is the so-called inhalable proportion, which is defined here as the proportion of the mist droplets with a […] median aerodynamic diameter (MMAD) of less than 5.8 μm. The inhalable proportion can be measured using an “Andersen Impactor”. […] Blood samples arc taken at suitable time intervals and the protein level in the plasma is then measured by immunological or biological methods.
# In this experiment, the reservoir (a) of the RESPIMAT® device was filled with 3.3 mg/mL of manganese superoxide dismutase (MnSOD) in phosphate-buffered saline (PBS). […] The precise amount nebulized was determined gravimetrically (measurements in three succeeding tests: 12.8, 13.7, and 14.3 mg). […] In three tests, 78%, 89%, and 83% of the immunologically identifiable MnSOD of the nebulized solution were measured in the trapped solution (b). […]
# [6] = In vitro RESPIMAT nebulization, MnSOD enzymatic activity (reduction of superoxide after xanthine/xanthine oxidase reaction); assay type: biochemical; settings: 3.3 mg/mL MnSOD in PBS
# Method: In this experiment, the reservoir (a) of the RESPIMAT® device was filled with 3.3 mg/mL of manganese superoxide dismutase (MnSOD) in phosphate-buffered saline (PBS). The device was operated and a volume of about 13 μL (one puff) was nebulized in an air current of 28 L/min. The precise amount nebulized was determined gravimetrically (measurements in three succeeding tests: 12.8, 13.7, and 14.3 mg). The nebulized solution was caught in a trap (b). This trap contained 20 mL of PBS. In addition, 2 mL of 5% bovine serum albumin was added to stabilize proteins in the trap. MnSOD was determined in the reservoir solution and in the solution caught in the trap, immunologically using an ELISA and enzymatically by the reduction in the quantity of superoxide after a xanthine/xanthine oxidase reaction. In three tests, 78%, 89%, and 83% of the immunologically identifiable MnSOD of the nebulized solution were measured in the trapped solution (b). […] The inhalable proportion (immunological measurements) was 61%.
# [7] = concentrated interferon omega solution 53 mg/mL, four tests
molecule,measurement,setting,value
interferon omega,"immunologically identifiable interferon found in the trap solution, based on the starting solution","[1]; 5 mg/mL formulation with additional human serum albumin (0.5%), three tests",79% and 83%
same,"immunologically identifiable interferon found in the trap solution, based on the starting solution","[1]; 5 mg/mL interferon omega in 50 mM trisodium citrate, 150 mM NaCl, pH 5.5, one puff, air current 28 l/min, ELISA, three experiments",84% and 77% and 98%
same,"immunologically identifiable interferon found in the trapped solution, based on the starting solution",[1]; [7],100% and 60% and 68% and 72%
same,biologically active interferon in the trapped solution,[2]; 5 mg/mL formulation with additional human serum albumin (0.5%),60% and 54% and 66%
same,recovery of the biologically identifiable interferon in the trapped solution,"[2]; 5 mg/mL interferon omega in 50 mM trisodium citrate, 150 mM NaCl, pH 5.5, three experiments",54% and 47% and 81%
same,recovery of the biologically identifiable interferon in the trapped solution,[2]; [7],95% and 98% and 61% and 83%
same,inhalable proportion (particles less than 5.8 μm),"[3]; 5 mg/mL interferon omega solution, Andersen impactor, 28 l/min",70%
same,inhalable proportion,[3]; interferon omega formulation with additional human serum albumin (0.5%),67%
same,neopterin levels after inhalation compared with intravenous administration of 0.32 mg of interferon,"neopterin; 20 puffs RESPIMAT, 5 mg/mL (about 1.28 mg) vs 0.32 mg i.v., FIG. 3",significantly higher and longer lasting levels
same,serum neopterin level after administration by inhalation,"neopterin; 20 puffs from RESPIMAT, 5 mg/mL solution (about 1.28 mg)",very high serum neopterin level
insulin,viscosity of the solution,[4],about 1020 ×10^−6 Pa·s
same,blood glucose level after administration of insulin by inhalation,blood glucose level,lowering of blood glucose level
B1,inhalable proportion,[3]; 3.3 mg/mL MnSOD in PBS,61%
same,immunologically identifiable MnSOD of the nebulized solution measured in the trapped solution,[5],78% and 89% and 83%
same,loss in enzymatic activity after nebulization,[6],no measurable loss
